Assay results as given in US20200270310A1, “MAFG AS A POTENTIAL THERAPEUTIC TARGET TO RESTORE CHEMOSENSITIVITY IN PLATINUM-RESISTANT CANCER CELLS” (FUNDACÓIN PARA LA INVESTIGACIÓN BIOMÉDICA DEL HOSPITAL …, priority 2017, published 2020).

T1: MAFG peptide M4 (IVQLKQRRRTLKNRGYAASCR) (Homo sapiens, UniProt O15525 SEQ:49-69)
T1 chain: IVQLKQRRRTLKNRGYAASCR


What was measured:
[1] = target: BSA (UniProt P02769 P02769:25-607); test: ELONA; background control; MAFG signal up to four times that of BSA; settings: label: 5' digoxigenin
[2] = target: T2, MAFG in H23S and H23R cells (Homo sapiens, UniProt O15525); test: Aptacytochemistry with digoxigenin-labeled individual aptamers; type: cell-based
T2 construct: endogenous in cells; host or cells: H23S and H23R (NSCLC cells, fixed)
Description: Following the methodology described above, H23R cells were incubated with 6 pmol of digoxigenin-labeled aptamers (IBA Life Sciences) in selection buffer for 1 hour at room temperature. Subsequently, cells were washed three times with PBS and incubated with anti-digoxigenin conjugated with 5′ AlexaFluor 488 (R&D systems, USA) at 1/500 dilution in blocking buffer for 1 hour at room temperature, as secondary antibody. Finally, the cells were mounted on glass slides using glycerol-buffer containing p-phenylenediamine and 1/750 dilution of Dapi for nuclear staining. Controls were made by omitting the aptamer. Colocalization was assessed by confocal microcopy as described in (iii).

[3] = target: T3, MAFG-Myc (Homo sapiens, UniProt O15525); test: Enzyme-linked oligonucleotide assay (ELONA) of aptamers and aptamer populations; type: binding; settings: for affinity against MAFG: Example 1, individual aptamers; for binding capacity to the target: Example 3, individual sequences from SEL6MAFG; for binding signal relative to BSA protein: individual sequences from SEL6MAFG
T3 construct: Myc (C); DDK (FLAG)
Description: FIG. 4. Analysis of the affinity of the aptamers against MAFG. (A) Quantification of aptamer-MAFG complexes by qPCR comparing absence (dot pattern) or presence (filled pattern) of MAFG protein. […] Bars represent the mean±SEM of 2-3 experiments (B) Specificity binding assay of aptamers to MAFG performed by ELONA. MAFG-myc was plated at 50ng/well in 96-well plates followed by incubation with 5′ digoxigenin-labeled aptamers from RND40, SEL3MAFG and SEL6MAFG. The figure represents the mean±SEM of 3 independent experiments. p<0.01. (C) Aptacytochemistry in HEK-293T cells transiently transfected with MAFG-myc. Cells overexpressing MAFG were incubated with 5′ Alexafluor 488-conjugated aptamers from RND40, SEL3MAFG or SEL6MAFG (upper panel) or Myc antibody (lower panel). Confocal microscopy images corresponding to the staining of nuclei with Hoechst (blue), antibodies (red), and aptamers (green) are shown. Arrowhead indicates positive cells. Bar=13 μm. (D) Study of individual aptamers affinity performed by ELONA. Recombinant MAFG was plated at 50 ng/well in 96-well plates followed by incubation with 5′ digoxigenin-labeled individual aptamers apMAGF3F, apMAFG6F and apMAFG11F. The figure represents the mean±SD of 2 independent experiments. (E) Secondary structures of aptamers apMAGF3F, apMAFG6F and apMAFG11F obtained by bioinformatics sequence analysis using the mFold software taking into account the lower free energy (AG).
(ii) Enzyme-linked oligonucleotide assay (ELONA): Aptamers were labeled by PCR using 5′ digoxigenin-labeled F3/5′ digoxigenin-labeled R3 primers (IBA Life Sciences). To assess the enrichment of the selected population and the affinity of the individual aptamers for the target, MAFG-Myc (50 ng) was incubated with the rounds 3, 6 of aptamers or the RND40 library. OD405nm values were determined using a SpectraFluor microplate reader (TECAN, Barcelona, Spain).

[4] = test system: H23R cells; test: Viability to CDDP after aptamer transfection (resistance index); type: cell-based, human; settings: aptamer 25 nM, CDDP 72 h
Description: FIG. 6. Viability curves combining the best dose of aptamers (25nM) and increasing doses of CDDP. Each experimental group was exposed for 72 h to 6 different CDDP concentrations after aptamers transfection; data were normalized to each untreated control, set to 100% and represent the mean±SD of at least 3 independent experiments performed in quadruplicate at each drug concentration for each cell line analyzed 25nM of aptamers and increasing doses of CDDP in H23S/R cells.
Once identified the best dose of aptamers, cells were transfected with aptamers and treated with increased doses of CDDP to assay viability and ROS production as mentioned above. In parallel, for all the experiments, cells were seeded in 24-well plates for aptamers extraction and confirmation of aptamers transfection.
HEK293 and H23S/R cells were seeded into 96-well plates then transfected with 5, 12.5, 25, 75 and 100 nM of MAFG aptamers or treated with PBS-Mg using Jet Pei PolyPlus transfection reagent (PolyPlus Transfection, USA). The dose of 25 nM aptamer was afterwards used in combination with increased doses of CDDP to assay viability and ROS production as described above. To confirm the aptamer-transfection efficiency cells were seeded in 24-well plates for aptamer isolation and confirmation of aptamer transfection by quantitative analysis. A Myc-DDK-tagged ORF clone of MAFG the negative control pCMV6 were used for in transient transfection (OriGene, USA) in combination with MAFG-aptamers following the same procedure.

[5] = test system: human MAFG peptides M1-M10; test: ELONA of aptamers with 10 MAFG peptides; type: binding; settings: digoxigenin aptamer 20 nM, 1 μg peptide, absorbance at 405 nm
Description: (§1) FIG. 9. Characterization of the interaction of aptamers with MAFG. ELONAS in which the Aptamers bound to digoxigenin (20 nM) were incubated 1 hour at 37° C. with 10 peptides (1 μg) previously attached to the plate overnight. After incubating 1 hour with antidigoxigenin-Peroxidase 1/1000, ABTS was added and at 10 minutes the absorbance at 405 nm was measured.
In order to identify compounds of the invention and starting from the amino acidic sequence of human MAFG (NCBI Reference Sequence: NP_116100.2) of: SEQ ID NO 2: […]); we designed the following 10 peptides (please refer to table below):
Peptide M4, amino acids 49-68 corresponds to the basic MAFG region containing the tyrosine residue (Tyr64), as well as the arginine residue (Arg57) required for binding to the DNA, in addition to a nuclear localization signal.

[6] = target: T1, MAFG peptide M4 (IVQLKQRRRTLKNRGYAASCR); test: ELONA; 20 nM aptamer, 1 ug peptide plated, 37 C 1 h; values only in figure; epitope M4 (residues 57-75 of MAFG); settings: protein: synthetic; tags: synthetic peptide; label: 5' digoxigenin
Description: as §1

[7] = target: T4, MAFG in tumor samples of patients with lung cancer (Homo sapiens, UniProt O15525); test: Aptahistochemistry in NSCLC tumor samples; settings: 20 tumor samples classified by MAFG mRNA levels
T4 construct: from tissue; host or cells: Formalin-fixed paraffin-embedded NSCLC tumour sections
Description: The formalin-fixed and paraffin-embedded tissue sections of patients with lung cancer were baked 15 minutes at 60° C. Deparaffinization was performed by two washes of xylene for 10 minutes each. Tissue sections were rehydrated by a sequential wash in 100%, 90%, 80%, 70% ethanol and distilled water for 5 minutes each. Antigen retrieval was achieved by heat treatment in a pressure cooker for 2 minutes in 10 mM citrate buffer (pH 6.5). Endogenous peroxidase activity of tissues was blocked with 0.3% […]. The primary binding reaction was performed with 10 pmol/ml of digoxigenin-conjugated aptamers overnight at room temperature. The secondary binding reaction was performed with anti-digoxigenin conjugated with POD (Roche; 1/200 dilution in TBS) for 45 minutes. Staining was done using the Immunoperoxidase DAB kit (Master Diagnostica), according to the manufacturer's instructions. The sections were counterstained with hematoxylin.
We then took advantage of the aptacytochemistry to perform an aptamer-based histochemistry in 20 tumor samples from our cohort of patients with known mRNA levels of MAFG. […] To determine the correlation between the aptahistochemistry and the mRNA levels of MAFG, we calculated the percentage of cells with positive staining from the total number of cells computed at four different areas randomly selected for each sample.

| Molecule | binding result [1] | number of dots per nucleus, H23R versus H23S [2] | affinity against MAFG [3] | binding capacity to the target [3] | binding signal relative to BSA protein [3] | CDDP resistance index after aptamer transfection [4] | interaction of aptamers with the 10 MAFG peptides by ELONA [5] | binding result [6] | percentage of positive cells in samples with higher MAFG levels [7] | cellular localization of the aptamer [2] |
| --- | --- | --- | --- | --- | --- | --- | --- | --- | --- | --- |
| apMAFG11F (ssDNA) DNA: GCGGATGAAGACTGGTGTCGCGAACCGGGTTACTTTTGTCGCGGGTCGTCGGATCTGTGCCCTAAATACGAGCAAC | no binding |  |  |  |  |  |  |  |  |  |
| GCGGATGAAGACTGGTGTCGCGAACCGGGTTACTTTTGTCGCGGGTCGTCGGATCTGTGCCCTAAATACGAGCAAC (nucleic acid, chemistry not given here, DNA aptamer selected against the MAFG protein by SELEX) GCGGATGAAGACTGGTGTCGCGAACCGGGTTACTTTTGTCGCGGGTCGTCGGATCTGTGCCCTAAATACGAGCAAC |  | no differences | high affinity | high binding capacity to the target in the nanomolar range | four times that of the BSA protein | no changes | recognized peptide M4 |  |  |  |
| apMAFG6F (ssDNA) DNA: GCGGATGAAGACTGGTGTCGATGCATGTGTAGTGCATTTCGAGCCGTTCTATTGGTGTGCCCTAAATACGAGCAAC | no binding |  |  |  |  |  |  | binds |  |  |
| apMAFG3F (ssDNA) DNA: GCGGATGAAGACTGGTGTGCTGTGCTTTGACGACTGTCTAGTGGGTTTTCTTCCCCCGGCCCTAAATACGAGCAAC | no binding |  |  |  |  |  |  |  |  |  |
| GCGGATGAAGACTGGTGTGCTGTGCTTTGACGACTGTCTAGTGGGTTTTCTTCCCCCGGCCCTAAATACGAGCAAC (nucleic acid, chemistry not given here, DNA aptamer selected against the MAFG protein by SELEX) GCGGATGAAGACTGGTGTGCTGTGCTTTGACGACTGTCTAGTGGGTTTTCTTCCCCCGGCCCTAAATACGAGCAAC |  | remarkable differences | high affinity | high binding capacity to the target in the nanomolar range | four times that of the BSA protein | no changes | recognized peptide M4 |  | significant increment in the percentage of positive cells | also present in the cytoplasm |
